Laboratory results: article doi:10.1101/091256 (bioRxiv, 2016)

Target: T1, release factor RF2 (E. coli (K12 strain), UniProt P07012 1-365)
T1 sequence: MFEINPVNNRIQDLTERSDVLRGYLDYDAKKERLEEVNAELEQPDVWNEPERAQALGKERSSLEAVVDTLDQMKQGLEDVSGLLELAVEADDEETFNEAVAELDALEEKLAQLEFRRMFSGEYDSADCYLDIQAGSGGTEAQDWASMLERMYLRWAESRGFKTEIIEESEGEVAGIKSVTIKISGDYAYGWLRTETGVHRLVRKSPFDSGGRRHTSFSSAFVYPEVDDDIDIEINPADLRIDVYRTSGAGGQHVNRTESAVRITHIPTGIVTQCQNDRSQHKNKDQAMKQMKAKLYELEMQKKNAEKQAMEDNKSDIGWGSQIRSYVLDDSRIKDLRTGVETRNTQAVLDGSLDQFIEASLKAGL
Experiment: cryo-EM structure

binding result: binds
B1: ArfA (alternative rescue factor A) (natural protein, E. coli, UniProt P36675 1-60, looked up)
chain: MSRYQHTKGQIKDNAIEALLHDPLFRQRVEKNKKGKGSYMRKGKHGNRGNWEASGKKVNH
